Laboratory results published in patent US20250084169A1 (published 2025).

Key:
[1] = molecular target: recombinant human Fc gamma RIIIa (CD16a) 158V (human, UniProt P08637 17-208)
Sequence of recombinant human Fc gamma RIIIa (CD16a) 158V (P08637 17-208 F176V limits assumed): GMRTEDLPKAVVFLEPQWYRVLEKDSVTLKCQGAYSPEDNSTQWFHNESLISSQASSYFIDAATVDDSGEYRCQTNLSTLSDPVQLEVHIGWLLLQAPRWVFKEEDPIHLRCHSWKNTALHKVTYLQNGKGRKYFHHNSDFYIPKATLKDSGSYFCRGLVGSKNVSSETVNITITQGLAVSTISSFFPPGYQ

B1: B19c66 (antibody, human IgG1, kappa)
light: not shown
heavy: not shown
chain: CPPCPAPELLGGPSVFLFPPKPKDTLMISRTPEVTCVVVDVSHEDPEVKFNWYVDGVEVHNAKTKPREEQYNSTYRVVSVLTVLHQDWLNGKEYKCKVSNKALPAPIEKTISKAKGQPREPQVYVYPPSRDELTKNQVSLTCLVKGFYPSDIAVEWESNGQPENNYKTTPPVLDSDGSFALVSKLTVDKSRWQQGNVFSCSVMHEALHNHYTQKSLSLSPGK
Kd [1]: 0.234 µM | Kd (CD19 (target of Table 9)): 0.0218 µM
